What was measured:
[1] = target: T1, FcγRI (R&D system company, 1257-Fc) (UniProt P12314 16-288); assay: Octet; FcγRI loaded on anti-penta-His biosensor, antibody 100 nM as analyte
[2] = target: T2, recombinant human VEGF165 (human, UniProt P15692-4 27-191); assay: cell-based or functional assay
[3] = target: human VEGF (hVEGF), isoform not stated (human, UniProt P15692-4 27-191, limits assumed); assay: ELISA on coated hVEGF (500 ng/ml), detection with anti-hIgG-Fc HRP, A450
Description: ELISA was performed to confirm the binding ability to VEGF. First, 100 μl of hVEGF was added to an immunoplate at a concentration of 500 ng/ml and caused to react at room temperature for 1 hour. 2% skim milk was dissolved in PBST, and then, 200 μl thereof was added onto the VEGF-coated wells and the reaction was caused to occur at room temperature for 2 hours. After the reaction, the well was washed three times using 300 μl of PBST, and then, Hz2, AAA0289, AAA0308, AAA0589, AAA0592, and AAA0600, which were purified above, were diluted starting from at a concentration of 100 ng/ml by two-fold to make a total of 11 samples. The samples were placed on the VEGF-coated well and the reaction was caused to occur at room temperature for 20 minutes. After the reaction, the well was washed three times using 300 μl of PBST, and then, anti-hIgG-Fc HRP (1:3000, Thermo) was added thereto at 100 μl/well and then reacted for 30 minutes. Then, the well was washed three times as described above, and the TMB (BioFx company) solution was added thereto at 100 μl/well to develop color at room temperature for 5 minutes. After the color development, 2N sulfuric acid was added at 50 μl/well to stop the color development, and the absorbance was measured at 450 nm, and results are shown in FIGS. 4A and 4B.

[4] = target: T2, recombinant human VEGF165; assay: cell-based or functional assay; remark: listed apart in the source
[5] = target: T2, recombinant human VEGF165; assay: Octet red96E BLI, human VEGF165 amine-coupled on AR2G sensor, hexamer as analyte (0.0625-4 nM), 30° C.
Description: (§1) Affinity for VEGF was determined as follows. Octet red96E was used, and human VEGF immobilized on the biosensor AR2G was interacted with AAA0308, AAA0589, AAA0592, and AAA0600 used as analytes, and binding and dissociation values thereof were compared and measured. As human VEGF, recombinant human VEGF165 (Sinobiological company) was used, and VEGF was immobilized on the AR2G sensor chip by an amine coupling method. At this time, the amount of VEGF used was 10 μg/ml, and the degree of coating was confirmed using a wavelength of 5 nm.
(§2) During measurement, the rotation speed was set to 100, and the temperature was measured at 30° C.
(§3) The concentration of the sample was adjusted using a kinetic buffer (Molecular Device Co.). The antibody solution of each concentration was used as a binding phase for 5 minutes, and then switched to a kinetic buffer to form a dissociation phase for 30 minutes.

[6] = target: T1, FcγRI (R&D system company, 1257-Fc); assay: Octet; FcγRI loaded on anti-penta-His biosensor, antibody 100 nM as analyte, 2 min association and 2 min dissociation
Description: Binding evaluation for FcγR I, II, and III was performed as follows. Octet red96E was used, and […] FcγRI(R&D system company, 1257-Fc), […] FcγRII(R&D system company, 1597-CF), and […] FcγRIII(R&D system company, […]) were each loaded on the anti-pentia his biosensor, and a signal of about 5 nm was confirmed. In order to identify the reactivity of AAA0589 and AAA0592 to FcγRI, FcγRII, and FcγRIII, binding force was measured using an antibody concentration of 100 nM as an analyte. During measurement, rpm was set to 100, and the temperature was measured at 30° C. Samples were diluted using kinetic buffer (Molecular Device Co.). The antibody solution of each concentration was used as an association phase for 2 minutes, and then converted to a kinetic buffer to form a dissociation phase for 2 minutes.

[7] = target: T2, recombinant human VEGF165; assay: Octet red96E BLI, human VEGF165 amine-coupled on AR2G sensor, hexamer as analyte (0.0625-0.6 nM), 30° C.
Description: as §1, §2, §3

T1 sequence (P12314 16-288 limits assumed): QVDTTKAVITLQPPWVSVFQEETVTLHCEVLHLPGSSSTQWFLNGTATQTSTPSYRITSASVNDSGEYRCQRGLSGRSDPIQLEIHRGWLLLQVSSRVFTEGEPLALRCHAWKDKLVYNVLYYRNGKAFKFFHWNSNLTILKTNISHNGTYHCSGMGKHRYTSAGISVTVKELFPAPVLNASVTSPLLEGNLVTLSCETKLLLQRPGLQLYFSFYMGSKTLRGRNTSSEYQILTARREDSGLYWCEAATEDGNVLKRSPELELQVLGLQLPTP
T2 sequence (P15692 other isoform, or with tags, fused parts or gaps limits assumed): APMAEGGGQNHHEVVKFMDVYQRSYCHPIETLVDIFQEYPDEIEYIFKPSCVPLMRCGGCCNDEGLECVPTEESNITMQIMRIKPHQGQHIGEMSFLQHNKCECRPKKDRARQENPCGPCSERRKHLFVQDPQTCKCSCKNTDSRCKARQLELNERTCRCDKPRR
Sequence of human VEGF (hVEGF), isoform not stated (P15692 other isoform, or with tags, fused parts or gaps limits assumed): as above

Binder	binding result [1]	IC50 of inhibition of the VEGF-induced calcium increase in HUVEC cells [2] [pM]	EC50 (read off the curve) [3] [pM]	IC50 (read off the curve) [4] [pM]	Kd [5] [pM]	koff [5] [s⁻¹]	kon [5] [M⁻¹ s⁻¹]	binding result [6]	Kd [7] [pM]
Hz2-F hexamer AAA0589 (antibody, human IgG1, kappa, L234A L235A, also called hexameric antibody AAA0589) heavy: EVQLVESGGGLVQPGGSLRLSCAVSGIDLNRYSLTWIRQAPGKGLEWVAIVGGSGVTYYANWAKGRFTISRDDSKNTLYLQMNSLRAEDTAVYYCARGSDRSAYAPDIWGQGTLVTVSSASTKGPSVFPLAPSSKSTSGGTAALGCLVKDYFPEPVTVSWNSGALTSGVHTFPAVLQSSGLYSLSSVVTVPSSSLGTQTYICNVNHKPSNTKVDKKVEPKSCDKTHTCPPCPAPEAAGGPSVFLFPPKPKDTLMISRTPEVTCVVVDVSHEDPEVKFNWYVDGVEVHNAKTKPREEQYNSTYRVVSVLTVCLQDWLNGKEYKCKVSNKALPAGIEKTISKAKGQPREPQVYTLPPSRDELTKNQVSLTCLVKGFYPSDIAVEWESNGQPENNYKTTPPVLDSDGSFFLYSKLTVDKSRWQQGNVFSCSVMHHALHNHYTQKSLSLSPGKPTLYNVSLVMSDTAGTCY light: DIQLTQSPSSLSASVGDRVTITCQSSQSIYSNNYLAWYQQKPGKAPKLLLYQASKLASGVPSRFSGSGSGTDFTLTISSLQPEDFATYYCLGVYDDDADNAFGQGTKVEIKRTVAAPSVFIFPPSDEQLKSGTASVVCLLNNFYPREAKVQWKVDNALQSGNSQESVTEQDSKDSTYSLSSTLTLSKADYEKHKVYACEVTHQGLSSPVTKSFNRGEC	no binding (tested: 100 nM)	200	~40	~200	< 1	< 1e-07	208000		
Omal013 (positive control antibody) (antibody, human IgG1, kappa, also called positive control group) heavy: not shown light: DIQLTQSPSSLSASVGDRVTITCQSSQSIYSNNYLAWYQQKPGKAPKLLLYQASKLASGVPSRFSGSGSGTDFTLTISSLQPEDFATYYCLGVYDDDADNAFGQGTKVEIKRTVAAPSVFIFPPSDEQLKSGTASVVCLLNNFYPREAKVQWKVDNALQSGNSQESVTEQDSKDSTYSLSSTLTLSKADYEKHKVYACEVTHQGLSSPVTKSFNRGEC								binds	
Hz2 humanized anti-VEGF antibody (monomer) (antibody, V domains shown) VH: EVQLVESGGGLVQPGGSLRLSCAVSGIDLNRYSLTWIRQAPGKGLEWVAIVGGSGVTYYANWAKGRFTISRDDSKNTLYLQMNSLRAEDTAVYYCARGSDRSAYAPDIWGQGTLVTVSS VL: DIQLTQSPSSLSASVGDRVTITCQSSQSIYSNNYLAWYQQKPGKAPKLLLYQASKLASGVPSRFSGSGSGTDFTLTISSLQPEDFATYYCLGVYDDDADNAFGQGTKVEIKR			~20						
Aflibercept CL kappa hexamer AAA0600 (Fc fusion) SDTGRPFVEMYSEIPEIIHMTEGRELVIPCRVTSPNITVTLKKFPLDTLIPDGKRIIWDSRKGFIISNATYKEIGLLTCEATVNGHLYKTNYLTHRQTNTIIDVVLSPSHGIELSVGEKLVLNCTARTELNVGIDFNWEYPSSKHQHKKLVNRDLKTQSGSEMKKFLSTLTIDGVTRSDQGLYTCAASSGLMTKKNSTFVRVHEKTVAAPRTVAAPSVFIFPPSDEQLKSGTASVVCLLNNFYPREAKVQWKVDNALQSGNSQESVTEQDSKDSTYSLSSTLTLSKADYEKHKVYACEVTHQGLSSPVTKSFNRGESDKTHTCPPCPAPEAAGGPSVFLFPPKPKDTLMISRTPEVTCVVVDVSHEDPEVKFNWYVDGVEVHNAKTKPREEQYNSTYRVVSVLTVCLQDWLNGKEYKCKVSNKALPAGIEKTISKAKGQPREPQVYTLPPSRDELTKNQVSLTCLVKGFYPSDIAVEWESNGQPENNYKTTPPVLDSDGSFFLYSKLTVDKSRWQQGNVFSCSVMHHALHNHYTQKSLSLSPGKPTLYNVSLVMSDTAGTCY		200	~40	~200					2.03
Lu007-F hexamer AAA0592 (antibody, human IgG1, kappa, L234A L235A, also called Lu007 hexamer AAA0592) heavy: EVQLVESGGGLVQPGGSLRLSCAASGYDFTHYGMNWIRQAPGKGLEWVGWINTYTGEPTYAADFKRRFTFSLDTSKSTVYLQMNSLRAEDTAVYYCAKYPHYYGTSHWYFDVWGQGTLVTVSSASTKGPSVFPLAPSSKSTSGGTAALGCLVKDYFPEPVTVSWNSGALTSGVHTFPAVLQSSGLYSLSSVVTVPSSSLGTQTYICNVNHKPSNTKVDKKVEPKSCDKTHTCPPCPAPEAAGGPSVFLFPPKPKDTLMISRTPEVTCVVVDVSHEDPEVKFNWYVDGVEVHNAKTKPREEQYNSTYRVVSVLTVCLQDWLNGKEYKCKVSNKALPAGIEKTISKAKGQPREPQVYTLPPSRDELTKNQVSLTCLVKGFYPSDIAVEWESNGQPENNYKTTPPVLDSDGSFFLYSKLTVDKSRWQQGNVFSCSVMHEALHNHYTQKSLSLSPGKPTLYNVSLVMSDTAGTCY light: not shown	no binding (tested: 100 nM)	200	~90	~300	< 1	< 1e-07	666000		

Source: patent US20240067711A1 (MEDYTOX, published 2024)
